# Measurements published in the RNAGym collection of RNA variant scans (doi:10.7554/elife.80360).
# B1: HDV Ribozyme (parent)
# chain: GGCCGGCAUGGUCCCAGCCUCCUCGCUGGCGCCGGCUGGGCAACAUUCCGAGGGGACCGUCCCCUCGGUAAUGGCGAAUGGGACCCA
# Variants of: B1
# Experiment: self-cleavage, relative activity (ratio to wild type); higher = more cleavage; co-transcriptional
row,Variant,self-cleavage
1,GGCCGGCAUGGUCCCAGCCUCCUCGCUGGCGCCGGCUGUGCAACAUUCCGAGGGGACCGUCCCCUCGGUAAUGGCGAAUGGGUCCCA [G39U A83U],0.259
2,GGCCGGCAUGGUCCCAGCGUCCUCGCUGGCGCCGGCUGGGCAUCAUUCCGAGGGGACCGUCCCCUCGGUAAUGGCGAAUGGGACCCA [C19G A43U],0.0594
3,GGCCGGCAUGGUCCCAGCCCCCUCGCUGGCGCCGGCUGGCCAACAUUCCGAGGGGACCGUCCCCUCGGUAAUGGCGAAUGGGACCCA [U20C G40C],0.0396
4,GGCCGGCAUGGUCCCAGCCUCCUUGCUGCCGCCGGCUGGGCAACAUUCCGAGGGGACCGUCCCCUCGGUAAUGGCGAAUGGGACCCA [C24U G29C],0.138
5,GGCCGGCAUGGUCCCAGCCUCCUCGCUGGCACCGGCUGGGCAACAUUCCGAGGGGACCGUCACCUCGGUAAUGGCGAAUGGGACCCA [G31A C62A],0.445
6,GGCCGGCAUGAUCCCAGCCUCCUCGCUGGCGCCGGCUGGGCAACAUUCCGAGGGGACCCUCCCCUCGGUAAUGGCGAAUGGGACCCA [G11A G59C],0.381
7,AGCCGGCAUGGUCCCAGCCUCCUCGCUGGCGCCGGCUGGGCAACAUUCCGAGGGGCCCGUCCCCUCGGUAAUGGCGAAUGGGACCCA [G1A A56C],0.107
8,GGCCGGCAUAGUGCCAGCCUCCUCGCUGGCGCCGGCUGGGCAACAUUCCGAGGGGACCGUCCCCUCGGUAAUGGCGAAUGGGACCCA [G10A C13G],0.104
9,GGCCGGCAUGGUCCAAGCCUCCUCGCUGGCGCCGGCUGGGCAACAUUCCGACGGGACCGUCCCCUCGGUAAUGGCGAAUGGGACCCA [C15A G52C],0.655
10,GGCCGGCAUGGUCCCAGCCUCCUCGCUGGCGCCGGCUGCGCAACAUUCCGAGGGGACCGUCCCCUCGGUAAUGGGGAAUGGGACCCA [G39C C75G],0.0831
11,GGCCGGCAUGGCCCCAGCCUCCUCGCUGGCGCCGGCUGGGCAACAUUCCGAGGGGACCGUCCCCUCGGCAAUGGCGAAUGGGACCCA [U12C U69C],0.391
12,GGCCGGCAUGAUCCCAGCCUCCUCGCUAGCGCCGGCUGGGCAACAUUCCGAGGGGACCGUCCCCUCGGUAAUGGCGAAUGGGACCCA [G11A G28A],0.0268
13,GGCCGGCAUGGUCCCAGCCUCCGCGCUGGCGCCCGCUGGGCAACAUUCCGAGGGGACCGUCCCCUCGGUAAUGGCGAAUGGGACCCA [U23G G34C],0.0415
14,GGCCGGCAUGGUCCCAGCCUCCUCGCUGGCGCCGGCUGGGCAACUUGCCGAGGGGACCGUCCCCUCGGUAAUGGCGAAUGGGACCCA [A45U U47G],0.867
15,GGACGGCAUGGUCCAAGCCUCCUCGCUGGCGCCGGCUGGGCAACAUUCCGAGGGGACCGUCCCCUCGGUAAUGGCGAAUGGGACCCA [C3A C15A],0.306
16,GGCCGGCAUGUUCCCAGCCUCCUCGCUGGCGCCGGCUGGGCAACAUUCCGAGGGGACCCUCCCCUCGGUAAUGGCGAAUGGGACCCA [G11U G59C],0.297
17,GGCCGGCAUGGUCCCAGCCUCCUCGCUGGCGCCGGCUGGGCAACAUUCCGAGGGGACCGUGCCCUCGGAAAUGGCGAAUGGGACCCA [C61G U69A],0.789
18,GGCCGGCAUGGCCCCAGCCUCCUCGCUGGCGCCGGCUGGGCAACAUUCCGAGGGGACCGUCCGCUCGGUAAUGGCGAAUGGGACCCA [U12C C63G],0.123
19,GGCCGGCAUGGUCCCAGCCUCGUCGAUGGCGCCGGCUGGGCAACAUUCCGAGGGGACCGUCCCCUCGGUAAUGGCGAAUGGGACCCA [C22G C26A],0.156
20,GGCCGGCAUGGUCCCAGCCUCCUCGCUGGCGCCGGCUGGGCAACAUUCCGAGGGGACCGUCCCCUCAGCAAUGGCGAAUGGGACCCA [G67A U69C],0.927
21,GGCCGGCAUGGUCCCAGCCUCCUCGCUGGCGCCGGCUGGGCAACAUUCCGAGGGGACCGUCCCGUCGGUAAUGUCGAAUGGGACCCA [C64G G74U],0.635
22,GGCCGGCAUGGUCCCAGCCUCCUCGCUGGCGCCGGGUGGGCAACAUUCCGAGGGGACCGUCCCAUCGGUAAUGGCGAAUGGGACCCA [C36G C64A],0.259

row,Variant,self-cleavage
1,GGCCGGCAUGGUCCCAGCCUCCGCGCUGGCGCCGGCUGGGCAACAUUCCGAGGGGACCGUCCCCUCGGUAUUGGCGAAUGGGACCCA [U23G A71U],0.633
2,GGCCGCCAUGGUCCCAGCCUCCUCGCUGGCGCCGGCUGGGCAACAUUCCGAGGGGACCGUCCCCUAGGUAAUGGCGAAUGGGACCCA [G6C C66A],0.201
3,GGCCGGCAUGGUCCCAGCUUCCUCGCUGGCGCCGGCUGGGCAACAUUCCGAGGGGACCGUCCCCUCGGUAAUGGCGAACGGGACCCA [C19U U79C],0.0415
4,GGCCGGCAUGGUCCCAGCCUCCUCGCUGACGCCGGAUGGGCAACAUUCCGAGGGGACCGUCCCCUCGGUAAUGGCGAAUGGGACCCA [G29A C36A],0.0222
5,GGCCAGCAUGGUCCCAGACUCCUCGCUGGCGCCGGCUGGGCAACAUUCCGAGGGGACCGUCCCCUCGGUAAUGGCGAAUGGGACCCA [G5A C18A],0.0875
6,GGCCGGCAUGGUCCCAGCCUCCUCGCUGGCGCCGGCUGGACAACAUUCCGAGGGGACCGUCCCCUCGGUAAUGGCGAAUGGGACCAA [G40A C86A],1.2
7,GGCCGGCAUGUUCCCAGCCUCCUCGCUGGCGCCGGCUGGGCACCAUUCCGAGGGGACCGUCCCCUCGGUAAUGGCGAAUGGGACCCA [G11U A43C],0.0594
8,GGCCGUCAUGGUCACAGCCUCCUCGCUGGCGCCGGCUGGGCAACAUUCCGAGGGGACCGUCCCCUCGGUAAUGGCGAAUGGGACCCA [G6U C14A],0.0692
9,GGCCGGCAUGGUCCCAGCCUCCUCGCUGGCGCCGGCUGGGCAACAUUCCGAGGGGACCGUCCCCUCGGUAAUGACGACUGGGACCCA [G74A A78C],0.0811
10,GGCCGGCACGGUCCCAGUCUCCUCGCUGGCGCCGGCUGGGCAACAUUCCGAGGGGACCGUCCCCUCGGUAAUGGCGAAUGGGACCCA [U9C C18U],0.457
11,GGCCGGCAUGGUCCCAGCCUCCUCGCGGGCGCCGGCUAGGCAACAUUCCGAGGGGACCGUCCCCUCGGUAAUGGCGAAUGGGACCCA [U27G G38A],0.128
12,GGCCGGCAUGGACCCAGCCUCCUCGCUGGCGCCGGCUGGGCAACAUUCCGAGGGGACCGUCCCCUCGGUAGUGGCGAAUGGGACCCA [U12A A71G],0
13,GGCCGGCAUGGUCCCAGCACCCUCGCUGGCGCCGGCUGGGCAACAUUCCGAGGGGACCGUCCCCUCGGUAAUGGCGAAUGGGACCCA [C19A U20C],0
14,GGCCGGAAUGGUCCCAGCCUCCUCGCUGGCGCCGGCUGGGCAACAUUCCGAGGGGACCGUCCACUCGGUAAUGGCGAAUGGGACCCA [C7A C63A],0.489
15,GGCCGGCAUGGUCCCAGCCUCCUCGCUGGCGCCGGCUGGGCAACAUUCCGAGGGAAACGUCCCCUCGGUAAUGGCGAAUGGGACCCA [G55A C57A],0.927
16,GGCCGGCAUGGUCCCAGCCUCCUCGCUGGCGCCGGCUGGGCAACAUUCCGAGGGGACCCUCCCCUCGGUAAUGGCGAAUGGGACCAA [G59C C86A],0.914
17,GGCCGGCAUGGUCCCAGCCUCCUCGCUGGCGCCGGCUGGGCUACAUUCCGAGGGGACAGUCCCCUCGGUAAUGGCGAAUGGGACCCA [A42U C58A],0.481
18,GGCUGGCAUGGUCCCAGCCUCCUCGCUGGCGCCGGCUGGGCAACAUUGCGAGGGGACCGUCCCCUCGGUAAUGGCGAAUGGGACCCA [C4U C48G],0.554
19,GGCCGGCAUGGUCCCAGCCUCCUCGCAGGCGCCGGCUGGACAACAUUCCGAGGGGACCGUCCCCUCGGUAAUGGCGAAUGGGACCCA [U27A G40A],0.886
20,GGCCGGAAUGGUCCCAGCCUCCUCGCUGGCGCCGGCUGGGCAACAUUCAGAGGGGACCGUCCCCUCGGUAAUGGCGAAUGGGACCCA [C7A C49A],0.538
21,GGCUGGCAUGGUCCCAGCCUCCUCGCUGGCGCCGGCUGGGCAACAUUCCGAGGGGACCGUCCCCUCGGUAAUGGCGAGUGGGACCCA [C4U A78G],0.375
22,GGCCGGCAUGGGCCCAGCCUCUUCGCUGGCGCCGGCUGGGCAACAUUCCGAGGGGACCGUCCCCUCGGUAAUGGCGAAUGGGACCCA [U12G C22U],0.256

row,Variant,self-cleavage
1,GGCCGGCAUGGUCCCAGCCUCCUCGCUGGCGCCGGCUGGGCAACAUUCCGAGGGGACCGUCCCCUCGGUAAUGGCGAAUGGGGACCA [A83G C84A],1.02
2,GGCCGGCAUGGUCCCAGCUUCCUCGCUGCCGCCGGCUGGGCAACAUUCCGAGGGGACCGUCCCCUCGGUAAUGGCGAAUGGGACCCA [C19U G29C],0.122
3,GGCCGGCAUGGUCCCAGCCUCCUCGCUGGCGCCGGCUGGGCAGCAUUCCGAGGAGACCGUCCCCUCGGUAAUGGCGAAUGGGACCCA [A43G G54A],0.378
4,GGCCGGCAUGGUCCCAGCCUCUUCGCUGGCGCCGGCUGGGCAACACUCCGAGGGGACCGUCCCCUCGGUAAUGGCGAAUGGGACCCA [C22U U46C],0.268
5,GGCCGGCAUGGUCCCAGCCUCCUCGCUGGCGCCGGCAGCGCAACAUUCCGAGGGGACCGUCCCCUCGGUAAUGGCGAAUGGGACCCA [U37A G39C],0
6,GGCCGGCAUGGUCCUAGCCUCCUCGCUGGCGCCGGCUGGGCAACAAUCCGAGGGGACCGUCCCCUCGGUAAUGGCGAAUGGGACCCA [C15U U46A],0.692
7,GGCCGGCAUGGUCCCAGCCUCCUCGCUGGCGCCGGCUGGGCAACAUUCCGAGGGGACCGUCGCCUCGGUAACGGCGAAUGGGACCCA [C62G U72C],0.525
8,GGCCGGCAUGGUCCCAGCCUCCUCGCUGGCGCCGGCUGGGCAACAUUCCGAGGGGACCGUCCCCUCGGUAUUGGCGAAUGGGACCCA [A71U],0.93
9,GGCCGGCAUGGUCCCAGCCUCCUCGCUGGCGCCGGCUGGGCAAUAUUCCGAGGGGACCGUCCCCUCGGUAUUGGCGAAUGGGACCCA [C44U A71U],0.972
10,GGCCGGCAUGGUCCCAGCCUCCUCGCUAGCGCCGGCUGGGCAACAUUCCGAGGGGACCGUUCCCUCGGUAAUGGCGAAUGGGACCCA [G28A C61U],0.0631
11,GGCCGGCAUGGUCCCAGCCUCCUCGCUGGCGCCGGCUGGGCAACAUUCCGAGGGGACCGUCCCCUCGGUAAUGGCGAACGGGACCUA [U79C C86U],0.696
12,GGCCGGCAUGGUCCCAGCCUCCUCGCUGGCGCCGGCUUGGCAUCAUUCCGAGGGGACCGUCCCCUCGGUAAUGGCGAAUGGGACCCA [G38U A43U],0.0963
13,GGUCGGCAUGGUCCCAGCCUCCUCGCUGGCGCCGGCUGGGCAACAUUCCGAGGGGACCGUCCCCUCGGUCAUGGCGAAUGGGACCCA [C3U A70C],0.566
14,GGCCGGCAUGGUCCCAGCCUCCACGCUGGCGCCGGCUGGGCAACAUUCCGAGGGGACCGUCCCCUCGGAAAUGGCGAAUGGGACCCA [U23A U69A],1.01
15,GGCCGGCAUGGACCCAGCCUCCUCUCUGGCGCCGGCUGGGCAACAUUCCGAGGGGACCGUCCCCUCGGUAAUGGCGAAUGGGACCCA [U12A G25U],0.133
16,GGCCGGCAUGGUCCCAGCCUCCUCGCUGGCGCCGGCAGGGCAACAUUCCCAGGGGACCGUCCCCUCGGUAAUGGCGAAUGGGACCCA [U37A G50C],0.0489
17,GGCCGGCAUGGUCCCAGCCUCCUCGCUGGCGCCGGCUGGGCAACAUUCCGCGGGGACCGUCCCCUCGGUAAUGGCGAAUGGGACGCA [A51C C85G],0.831
18,GGCCGGCAUGGUCCGAGCCUCCUCGCUGGCGCCGGCUGGGCAACAUUCCGAGGGGCCCGUCCCCUCGGUAAUGGCGAAUGGGACCCA [C15G A56C],0.739
19,GGCCGGCACGGUCCCAGCCUCCUCGCCGGCGCCGGCUGGGCAACAUUCCGAGGGGACCGUCCCCUCGGUAAUGGCGAAUGGGACCCA [U9C U27C],0.554
20,GGCCGUCAUGGUCCCAGCCUCCUCGCUGGCGCCGGCUGGGCAACAUUCCGAGGGGACCGUACCCUCGGUAAUGGCGAAUGGGACCCA [G6U C61A],0.717
